From patent US20250243277A1 (AVACTA LIFE SCIENCES, published 2025)

B1: Clone 39 (designed binder)
chain: MIPGGLSEAKPATPEIQEIVDKVKPQLEEKTGETYGKLEAVQYKTQVVEIRPVWDWSGTNYYIKVRAGDNKYMHLKVFKSLFDHESKPTAEDLVLTGYQVDKNKDDELTGF
notes: His-tagged
B2: Clone 66 (designed binder)
chain: MIPGGLSEAKPATPEIQEIVDKVKPQLEEKTGETYGKLEAVQYKTQVVNLKPDVQGSGTNYYIKVRAGDNKYMHLKVFKSLIVVKRYWYVEDLVLTGYQVDKNKDDELTGF
notes: His-tagged
B3: Clone 53 (designed binder)
chain: MIPGGLSEAKPATPEIQEIVDKVKPQLEEKTGETYGKLEAVQYKTQVVAWDWLPAYRGTNYYIKVRAGDNKYMHLKVFKSLFKFQNESFAEDLVLTGYQVDKNKDDELTGF
notes: His-tagged
B4: Clone 43 (designed binder)
chain: MIPGGLSEAKPATPEIQEIVDKVKPQLEEKTGETYGKLEAVQYKTQVVVQHPQWHWKGTNYYIKVRAGDNKYMHLKVFKSLVQQRDVWINEDLVLTGYQVDKNKDDELTGF
notes: His-tagged
B5: Clone 60 (designed binder)
chain: MIPGGLSEAKPATPEIQEIVDKVKPQLEEKTGETYGKLEAVQYKTQVVPQVQEPWWIGTNYYIKVRAGDNKYMHLKVFKSLYKAYIQGWNEDLVLTGYQVDKNKDDELTGF
notes: His-tagged
B6: Clone 31 (designed binder)
chain: MIPGGLSEAKPATPEIQEIVDKVKPQLEEKTGETYGKLEAVQYKTQVVAQDLSAFQIGTNYYIKVRAGDNKYMHLKVFKSLIFAPLKPWREDLVLTGYQVDKNKDDELTGF
notes: His-tagged
B7: Clone 44 (designed binder)
chain: MIPGGLSEAKPATPEIQEIVDKVKPQLEEKTGETYGKLEAVQYKTQVVRTKETKKSWGTNYYIKVRAGDNKYMHLKVFKSLQKIHAIFYVEDLVLTGYQVDKNKDDELTGF
notes: His-tagged
B8: Clone 42 (designed binder)
chain: MIPGGLSEAKPATPEIQEIVDKVKPQLEEKTGETYGKLEAVQYKTQVVIQHIWWDFVGTNYYIKVRAGDNKYMHLKVFKSLSRLEPAGHQEDLVLTGYQVDKNKDDELTGF
notes: His-tagged
B9: Clone 252 (designed binder)
chain: MIPGGLSEAKPATPEIQEIVDKVKPQLEEKTGETYGKLEAVQYKTQVVAVRPIFKWAGTNYYIKVRAGDNKYMHLKVFKSLFHGPLDNYTEDLVLTGYQVDKNKDDELTGF
notes: His-tagged
B10: Clone 64 (designed binder)
chain: MIPGGLSEAKPATPEIQEIVDKVKPQLEEKTGETYGKLEAVQYKTQVVIAHIHWKYFGTNYYIKVRAGDNKYMHLKVFKSLHLAKGQWREEDLVLTGYQVDKNKDDELTGF
notes: His-tagged
B11: Clone 245 (designed binder)
chain: MIPGGLSEAKPATPEIQEIVDKVKPQLEEKTGETYGKLEAVQYKTQVVGYLELWKWSGTNYYIKVRAGDNKYMHLKVFKSLYNLHHPHKDEDLVLTGYQVDKNKDDELTGF
notes: His-tagged
B12: Clone 50 (designed binder)
chain: MIPGGLSEAKPATPEIQEIVDKVKPQLEEKTGETYGKLEAVQYKTQVVGRQVKWAWTGTNYYIKVRAGDNKYMHLKVFKSLFKQHHNISEEDLVLTGYQVDKNKDDELTGF
notes: His-tagged
B13: Clone 4 (designed binder)
chain: MIPGGLSEAKPATPEIQEIVDKVKPQLEEKTGETYGKLEAVQYKTQVVFQTWDHAWTGTNYYIKVRAGDNKYMHLKVFKSLFAAETQQYYEDLVLTGYQVDKNKDDELTGF
notes: His-tagged
B14: Clone 65 (designed binder)
chain: MIPGGLSEAKPATPEIQEIVDKVKPQLEEKTGETYGKLEAVQYKTQVVDYRAIWHWWGTNYYIKVRAGDNKYMHLKVFKSLFHAEGDIWDEDLVLTGYQVDKNKDDELTGF
notes: His-tagged
B15: Clone 5 (designed binder)
chain: MIPGGLSEAKPATPEIQEIVDKVKPQLEEKTGETYGKLEAVQYKTQVVFLDWKQHWRGTNYYIKVRAGDNKYMHLKVFKSLFNDKHNSTEDLVLTGYQVDKNKDDELTGF
notes: His-tagged
B16: Clone 28 (designed binder)
chain: MIPGGLSEAKPATPEIQEIVDKVKPQLEEKTGETYGKLEAVQYKTQVVAAFSVHPSSGTNYYIKVRAGDNKYMHLKVFKSLEKYHNIWYVEDLVLTGYQVDKNKDDELTGF
notes: His-tagged
B17: Clone 45 (designed binder)
chain: MIPGGLSEAKPATPEIQEIVDKVKPQLEEKTGETYGKLEAVQYKTQVVREYPHFQGYGTNYYIKVRAGDNKYMHLKVFKSLILNAGGIRWEDLVLTGYQVDKNKDDELTGF
notes: His-tagged
B18: Clone 25 (designed binder)
chain: MIPGGLSEAKPATPEIQEIVDKVKPQLEEKTGETYGKLEAVQYKTQVVVRHPRWFFIGTNYYIKVRAGDNKYMHLKVFKSLKKHGDEVTLEDLVLTGYQVDKNKDDELTGF
notes: His-tagged
B19: Clone 46 (designed binder)
chain: MIPGGLSEAKPATPEIQEIVDKVKPQLEEKTGETYGKLEAVQYKTQVVVQHSLWYFQGTNYYIKVRAGDNKYMHLKVFKSLFKHPEENPVEDLVLTGYQVDKNKDDELTGF
notes: His-tagged
B20: Clone 41 (designed binder)
chain: MIPGGLSEAKPATPEIQEIVDKVKPQLEEKTGETYGKLEAVQYKTQVVGTRDEWHWVGTNYYIKVRAGDNKYMHLKVFKSLFVKDDGRVDEDLVLTGYQVDKNKDDELTGF
notes: His-tagged
B21: Clone 250 (designed binder)
chain: MIPGGLSEAKPATPEIQEIVDKVKPQLEEKTGETYGKLEAVQYKTQVVRDPDVFVFSGTNYYIKVRAGDNKYMHLKVFKSLWYYNDNQSGEDLVLTGYQVDKNKDDELTGF
notes: His-tagged
B22: Clone 61 (designed binder)
chain: MIPGGLSEAKPATPEIQEIVDKVKPQLEEKTGETYGKLEAVQYKTQVVPTGTHQWAAGTNYYIKVRAGDNKYMHLKVFKSLWASLESGQNEDLVLTGYQVDKNKDDELTGF
notes: His-tagged
B23: Clone 33 (designed binder)
chain: MIPGGLSEAKPATPEIQEIVDKVKPQLEEKTGETYGKLEAVQYKTQVVNQPQPPWIRGTNYYIKVRAGDNKYMHLKVFKSLNWNSPNLTWEDLVLTGYQVDKNKDDELTGF
notes: His-tagged
B24: Clone 6 (designed binder)
chain: MIPGGLSEAKPATPEIQEIVDKVKPQLEEKTGETYGKLEAVQYKTQVVLSEAVYIWAGTNYYIKVRAGDNKYMHLKVFKSLNSRWYGPLGEDLVLTGYQVDKNKDDELTGF
notes: His-tagged
B25: Clone 57 (designed binder)
chain: MIPGGLSEAKPATPEIQEIVDKVKPQLEEKTGETYGKLEAVQYKTQVVELDGDHTWLGTNYYIKVRAGDNKYMHLKVFKSLRQLHRIWYFEDLVLTGYQVDKNKDDELTGF
notes: His-tagged
B26: Clone 47 (designed binder)
chain: MIPGGLSEAKPATPEIQEIVDKVKPQLEEKTGETYGKLEAVQYKTQVVGVKQTWNWNGTNYYIKVRAGDNKYMHLKVFKSLFGLNDDEPVEDLVLTGYQVDKNKDDELTGF
notes: His-tagged
B27: Clone 51 (designed binder)
chain: MIPGGLSEAKPATPEIQEIVDKVKPQLEEKTGETYGKLEAVQYKTQVVSHHASPSHIGTNYYIKVRAGDNKYMHLKVFKSLTTDPNWDVHEDLVLTGYQVDKNKDDELTGF
notes: His-tagged
B28: Clone 59 (designed binder)
chain: MIPGGLSEAKPATPEIQEIVDKVKPQLEEKTGETYGKLEAVQYKTQVVREPALWHFRGTNYYIKVRAGDNKYMHLKVFKSLTFKVDTWKVEDLVLTGYQVDKNKDDELTGF
notes: His-tagged
B29: Clone 55 (designed binder)
chain: MIPGGLSEAKPATPEIQEIVDKVKPQLEEKTGETYGKLEAVQYKTQVVAGWSLPPHLGTNYYIKVRAGDNKYMHLKVFKSLINHAGQKSDEDLVLTGYQVDKNKDDELTGF
notes: His-tagged
B30: Clone 27 (designed binder)
chain: MIPGGLSEAKPATPEIQEIVDKVKPQLEEKTGETYGKLEAVQYKTQVVDVKPKWQWTGTNYYIKVRAGDNKYMHLKVFKSLFEGEDRDAVEDLVLTGYQVDKNKDDELTGF
notes: His-tagged
B31: Clone 248 (designed binder)
chain: MIPGGLSEAKPATPEIQEIVDKVKPQLEEKTGETYGKLEAVQYKTQVVLQLPPRPHDGTNYYIKVRAGDNKYMHLKVFKSLNWEPAQHPVEDLVLTGYQVDKNKDDELTGF
notes: His-tagged
B32: Clone 63 (designed binder)
chain: MIPGGLSEAKPATPEIQEIVDKVKPQLEEKTGETYGKLEAVQYKTQVVQEYEDQEWAGTNYYIKVRAGDNKYMHLKVFKSLHLWNQQIYREDLVLTGYQVDKNKDDELTGF
notes: His-tagged
B33: Clone 35 (designed binder)
chain: MIPGGLSEAKPATPEIQEIVDKVKPQLEEKTGETYGKLEAVQYKTQVVKYETHFYYEGTNYYIKVRAGDNKYMHLKVFKSLPKRWAYNAYEDLVLTGYQVDKNKDDELTGF
notes: His-tagged
B34: Clone 249 (designed binder)
chain: MIPGGLSEAKPATPEIQEIVDKVKPQLEEKTGETYGKLEAVQYKTQVVIYYPIWGFQGTNYYIKVRAGDNKYMHLKVFKSLRWSKDGATAEDLVLTGYQVDKNKDDELTGF
notes: His-tagged
B35: Clone 37 (designed binder)
chain: MIPGGLSEAKPATPEIQEIVDKVKPQLEEKTGETYGKLEAVQYKTQVVHHFAEVKWYGTNYYIKVRAGDNKYMHLKVFKSLKITGSTLTFEDLVLTGYQVDKNKDDELTGF
notes: His-tagged

What follows are binders tested against T1, human PD-L1-Fc (R&D Systems) (human, UniProt Q9NZQ7 19-239) (assay: soluble Affimer ELISA).
T1 construct: Bought from R&D Systems; Biotinylated in-house for the phage selection; also called huPD-L1-Fc; human PD-L1-Fc antigen; not shown: Fc part of the bought fusion
T1 sequence (Q9NZQ7 19-239 limits assumed): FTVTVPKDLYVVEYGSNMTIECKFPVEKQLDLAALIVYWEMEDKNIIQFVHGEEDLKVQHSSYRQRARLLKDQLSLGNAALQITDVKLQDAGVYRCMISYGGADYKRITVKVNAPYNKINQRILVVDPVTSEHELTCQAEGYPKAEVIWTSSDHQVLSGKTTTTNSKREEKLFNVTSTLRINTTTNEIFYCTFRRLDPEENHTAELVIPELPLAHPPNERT

Binding result, binds:
B1, B2, B3, B4, B5, B6, B7, B8, B9, B10, B11, B12, B13, B14, B15, B16, B17, B18, B19, B20, B21, B22, B23, B24, B25, B26, B27, B28, B29, B30, B31, B32, B33, B34, B35
